Assay results as given in patent publication US11202837B2, “Biological materials and uses thereof” (Antikor Biopharma Limited, priority 2014, dated 2021).
≈ marks a conversion by molar mass, not a printed value. Where two headings read alike, the source gives them in different places. Where a SMILES comes first, the peptide text is derived from it. [ ]: non-standard residue; d: D form. The star is where a group is joined. Dolaproine = CO[C@@H]([C@@H]1CCCN1)[C@@H](C)C(=O)O; Dil = CC[C@H](C)[C@H](NC)[C@@H](CC(=O)O)OC; NMe2Val = CC(C)[C@@H](C(=O)*)N(C)C; NMeV = CN[C@H](C(=O)O)C(C)C

Assays:
BT474 cells = assay: Cell killing assay (MTS), BT474 cells; format: cell-based, human
Protocol: (§1) The cells were recovered by centrifugation (2 min, 2000 rpm), the supernatant was discarded, and the cells were resuspended in complete McCoy's 5A (5 ml). The cells were then counted using a haemocytometer and diluted accordingly. They were plated at 5000 cells/well (200 μl) using attachment factor and incubated overnight at 37° C., 5% CO2 in a humidified atmosphere. U87 is a non-HER2 expressing glioblastoma cell line [Zitron I M et al (2013) BMC Cancer 13:83] and was grown in a similar way, plated at 1000 cells/well (using DMEM media). BT474 is a HER2 expressing breast cancer cell line [Brockhoff G et al (2007) Cell Prolif 40:488-507] and was grown in a similar way, plated at 7500 cells/well (using RPMI media). NCI-N87 is a HER2 expressing gastric cancer cell line [Yamashita-Kashima Y et al (2013) Oncol. Rep 30:1087-93] and was grown in a similar way, plated at 7500 cells/well (using RPMI media).
(§2) The cells were exposed to the various ADCs diluted in complete media for 96 hours at 37° C., 5% CO2 in a humidified atmosphere. Cell viability was measured using the Promega Aqueous Cell-titre-96™ aqueous one solution cell proliferation kit (MTS reagent) according to manufacturer's instructions. Briefly, the media was removed and 100 μl of complete phenol red free media, pre-combined with MTS reagent, was added to the cells (20 μl of reagent per 100 μl of media). The plates were read on an ELISA plate reader at 490 nm after a 2 hr incubation in the dark (5% CO2, 37° C.).
(§3) The data (absorption units) were converted to % cell survival by using the untreated controls as the 100% cell survival and the Triton X-100 controls as the 100% cell death. The average absorption value for the latter was subtracted from all the rest of the data in order to get a suitable baseline. The averages were converted to survival and standard error values were obtained for each n value (as a % cell survival). […] Experiments were repeated at least 3 times for each compound tested and a set or an average of the data was plotted and fitted to obtain a dose-response curve.

SKBr3 cells = assay: Cell killing assay (MTS), SKBr3 cells; format: cell-based, human
Protocol: SKBr3, human breast cancer cell line, high HER2 expression levels, up to 1,000,000 receptors per cell [Lazar G A, et al Proc Natl Acad Sci USA. […] When confluency was 70-80%, cells were washed with PBS (2×10 ml) and incubated with trypsin for 5-7 min. Complete media was added and the cells were resuspended by pipetting. The cells were recovered by centrifugation (2 min, 2000 rpm), the supernatant was discarded, and the cells were resuspended in complete DMEM (5 ml). The cells were then counted using a haemocytometer and diluted accordingly. They were plated at 4500 cells/well (200 μl) using attachment factor and incubated overnight at 37° C., 5% CO2 in a humidified atmosphere. U87 is a non-HER2 expressing glioblastoma cell line and was grown in a similar way, plated at 1000 cells/well.
as §2, with “The cells were exposed to the various ADCs diluted in complete media for 96 hours at 37° C., 5% CO2 in a humidified atmosphere.” left out, “kit” for “kit (MTS reagent)”
as §3, with “dose response” for “dose-response”
as §1
as §2, with “The cells were exposed to the various ADCs diluted in complete media for 96 hours at 37° C., 5% CO2 in a humidified atmosphere.” left out
The data (absorption units) were converted to % cell survival by using the untreated controls as the 100% cell survival and the Triton X-100 controls as the 100% cell death. The average absorption value for the latter was subtracted from all the rest of the data in order to get a suitable baseline. The averages were converted to survival and standard error values were obtained for each n value (as a % cell survival).

HER2 = HER2 (Homo sapiens, UniProt P04626); assay: Biacore SPR binding to immobilised HER2; conditions: immobilised HER2
Protocol: The binding affinity against immobilised HER2 target antigen was determined by Biacore SPR compared to the unmodified scFv on a Biacore T200. A standard amine-coupling method was used to prepare all Biacore surfaces (CM5 or CM3), as follows. Flow cells were activated individually by injecting a freshly mixed solution of 0.2M EDC in 0.05 M NHS at 30 μl/min. […] Excess NHS ester was deactivated using a 1 M ethanolamine solution. To measure the kinetics of the antibody and conjugate on the HER2 chip, a […] serial dilution (typically at 5, 2.5, 1.25, 0.6 μg/ml or lower for free antibody and 20, 10, 5, 2.5 μg/ml for the conjugates), was injected for 160 s at 30 μl/min, allowing a 900-s dissociation phase. The dissociation time was extended to 3600 s for the highest concentration. Surfaces were regenerated with 45 s injection of MgCl2 8M.
To evaluate binding ability, manual runs were performed at 30 μl/min with a 60 s injection of the desired compound followed by 60 s waiting time and a 45 s of regeneration at 10 μl/min using MgCl2 8M. All data was analysed using the software, BIAEvaluation.

[1] = SKBr3 Cells (HER2 +++), 4 hours incubation, Table 52
[2] = SKBr3 Cells (HER2 +++), 4 hours incubation, Table 52, read-out: IC50
[3] = SKBr3 Cells (HER2 +++), 96 hours incubation, Table 52
[4] = SKBr3 Cells (HER2 +++), 96 hours incubation, Table 52, read-out: IC50
[5] = 96 hours exposure, read-out: IC50 nM SKBr3 Cells (HER2+++)

Molecule: CC[C@H](C)[C@@H]([C@@H](CC(=O)N1CCC[C@H]1[C@H](OC)[C@@H](C)C(=O)N[C@@H](Cc1ccccc1)C(=O)O)OC)N(C)C(=O)[C@@H](NC(=O)[C@@H](NC)C(C)C)C(C)C [Free drug MMAF] (H-[NMeV]V[Dil][Dolaproine]F-OH)
- IC50 (BT474 cells; Homo sapiens, BT-474, 96 h, read-out: IC50 pM): > 10000 pM

Molecule: CC[C@H](C)[C@@H]([C@@H](CC(=O)N1CCC[C@H]1[C@H](OC)[C@@H](C)C(=O)N[C@@H](Cc1ccccc1)C(=O)O)OC)N(C)C(=O)[C@@H](NC(=O)[C@H](C(C)C)N(C)C)C(C)C [Free Auristatin] (NMe2Val-V[Dil][Dolaproine]F-OH)
- IC50 μg/ml (SKBr3 cells; [1]): 0.00181 µg/mL (≈ 2.43 nM)
- IC50 (SKBr3 cells; [2]): > 100 nM
- IC50 μg/ml (SKBr3 cells; [3]): 0.00081 µg/mL (≈ 1.09 nM)
- IC50 (SKBr3 cells; [4]): > 10 nM

B1: scFv (TCT)-P5C5, DAR = 5 (conjugate)
scFv: SGSGGSGQVQLVQSGAEVKKPGESLKISCKGSGYSFTSYWIAWVRQMPGKGLEYMGLIYPGDSDTKYSPSFQGQVTISVDKSVSTAYLQWSSLKPSDSAVYFCARHDVGYCSSSNCAAWPEYFQHWGQGTLVTVSSGGGGSGGGGSGGGGSQSVLTQPPSVSAAPGQKVTISCSGSSSNIGNNYVSWYQQLPGTAPKLLIYGHTNRPAGVPDRFSGSKSGTSASLAISGFRSEDEADYYCAAWDDSLSGWVFGGGTKLTVLMASMTGGQQMG
- IC50 μg/ml SKBr3 Cells (HER2+++) (SKBr3 cells; 96 hours exposure): 1.33 ± 0.1 µg/mL
- IC50 (SKBr3 cells; [5]): 47.5 ± 0.36 nM

B2: scFv (TCT)-P5C5, DAR = 8 (conjugate)
scFv: SGSGGSGQVQLVQSGAEVKKPGESLKISCKGSGYSFTSYWIAWVRQMPGKGLEYMGLIYPGDSDTKYSPSFQGQVTISVDKSVSTAYLQWSSLKPSDSAVYFCARHDVGYCSSSNCAAWPEYFQHWGQGTLVTVSSGGGGSGGGGSGGGGSQSVLTQPPSVSAAPGQKVTISCSGSSSNIGNNYVSWYQQLPGTAPKLLIYGHTNRPAGVPDRFSGSKSGTSASLAISGFRSEDEADYYCAAWDDSLSGWVFGGGTKLTVLMASMTGGQQMG
- IC50 μg/ml SKBr3 Cells (HER2+++) (SKBr3 cells; 96 hours exposure): 0.8 ± 0.1 µg/mL
- IC50 (SKBr3 cells; [5]): 28 ± 0.36 nM

B3: scFv (TCT1067)-MMAF-C5 DAR 5.2 (conjugate)
scFv: SGSGGSGQVQLVQSGAEVKKPGESLKISCKGSGYSFTSYWIAWVRQMPGKGLEYMGLIYPGDSDTKYSPSFQGQVTISVDKSVSTAYLQWSSLKPSDSAVYFCARHDVGYCTDRTCAAWPEWLGVWGQGTLVTVSSGGGGSGGGGSGGGGSQSVLTQPPSVSAAPGQKVTISCSGSSSNIGNNYVSWYQQLPGTAPKLLIYGHTNRPAGVPDRFSGSKSGTSASLAISGFRSEDEADYYCASWDYTLSGWVFGGGTKLTVLMASMTGGQQMG
- association rate (HER2): 1.8e+06 M⁻¹ s⁻¹
- dissociation rate (HER2): 3.4e-05 s⁻¹

B4: ScFv (TCT1067)-AF-C5 DAR 5.3 (conjugate)
scFv: SGSGGSGQVQLVQSGAEVKKPGESLKISCKGSGYSFTSYWIAWVRQMPGKGLEYMGLIYPGDSDTKYSPSFQGQVTISVDKSVSTAYLQWSSLKPSDSAVYFCARHDVGYCTDRTCAAWPEWLGVWGQGTLVTVSSGGGGSGGGGSGGGGSQSVLTQPPSVSAAPGQKVTISCSGSSSNIGNNYVSWYQQLPGTAPKLLIYGHTNRPAGVPDRFSGSKSGTSASLAISGFRSEDEADYYCASWDYTLSGWVFGGGTKLTVLMASMTGGQQMG
- IC50 μg/ml (SKBr3 cells; [1]): 0.00181 µg/mL
- IC50 (SKBr3 cells; [2]): 0.0644 nM
- IC50 μg/ml (SKBr3 cells; [3]): 0.00081 µg/mL
- IC50 (SKBr3 cells; [4]): 0.0288 nM

B5: scFv (TCT1067)-Auristatin-F-C5 DAR 5.65 (conjugate)
scFv: SGSGGSGQVQLVQSGAEVKKPGESLKISCKGSGYSFTSYWIAWVRQMPGKGLEYMGLIYPGDSDTKYSPSFQGQVTISVDKSVSTAYLQWSSLKPSDSAVYFCARHDVGYCTDRTCAAWPEWLGVWGQGTLVTVSSGGGGSGGGGSGGGGSQSVLTQPPSVSAAPGQKVTISCSGSSSNIGNNYVSWYQQLPGTAPKLLIYGHTNRPAGVPDRFSGSKSGTSASLAISGFRSEDEADYYCASWDYTLSGWVFGGGTKLTVLMASMTGGQQMG
- association rate (HER2): 336000 M⁻¹ s⁻¹
- dissociation rate (HER2): 1.35e-05 s⁻¹

B6: scFv (TCT1067)-Auristatin-F-C5 DAR 11.9 (conjugate)
scFv: SGSGGSGQVQLVQSGAEVKKPGESLKISCKGSGYSFTSYWIAWVRQMPGKGLEYMGLIYPGDSDTKYSPSFQGQVTISVDKSVSTAYLQWSSLKPSDSAVYFCARHDVGYCTDRTCAAWPEWLGVWGQGTLVTVSSGGGGSGGGGSGGGGSQSVLTQPPSVSAAPGQKVTISCSGSSSNIGNNYVSWYQQLPGTAPKLLIYGHTNRPAGVPDRFSGSKSGTSASLAISGFRSEDEADYYCASWDYTLSGWVFGGGTKLTVLMASMTGGQQMG
- association rate (HER2): 21700 M⁻¹ s⁻¹
- dissociation rate (HER2): 1.76e-05 s⁻¹

B7: scFv (TCT1067)-Auristatin-F-C5 DAR 3.3 (conjugate)
scFv: SGSGGSGQVQLVQSGAEVKKPGESLKISCKGSGYSFTSYWIAWVRQMPGKGLEYMGLIYPGDSDTKYSPSFQGQVTISVDKSVSTAYLQWSSLKPSDSAVYFCARHDVGYCTDRTCAAWPEWLGVWGQGTLVTVSSGGGGSGGGGSGGGGSQSVLTQPPSVSAAPGQKVTISCSGSSSNIGNNYVSWYQQLPGTAPKLLIYGHTNRPAGVPDRFSGSKSGTSASLAISGFRSEDEADYYCASWDYTLSGWVFGGGTKLTVLMASMTGGQQMG
- association rate (HER2): 556000 M⁻¹ s⁻¹
- dissociation rate (HER2): 1.82e-05 s⁻¹

B8: scFv (TCT1067)-P5C5 DAR 10.6 (conjugate)
scFv: SGSGGSGQVQLVQSGAEVKKPGESLKISCKGSGYSFTSYWIAWVRQMPGKGLEYMGLIYPGDSDTKYSPSFQGQVTISVDKSVSTAYLQWSSLKPSDSAVYFCARHDVGYCTDRTCAAWPEWLGVWGQGTLVTVSSGGGGSGGGGSGGGGSQSVLTQPPSVSAAPGQKVTISCSGSSSNIGNNYVSWYQQLPGTAPKLLIYGHTNRPAGVPDRFSGSKSGTSASLAISGFRSEDEADYYCASWDYTLSGWVFGGGTKLTVLMASMTGGQQMG
- IC50 μg/ml (BT474 cells; BT474 Cells (HER2++), 96 hours, Table 48): 0.5 µg/mL
- IC50 (BT474 cells; BT474 Cells (HER2++), 96 hours, Table 48, read-out: IC50): 17800 pM
